Data as given in the Immune Epitope Database (IEDB).

Tests used:
HLA-B*51:01 = assay: IEDB peptide-MHC binding, purified MHC/direct/fluorescence; filed as Kd, often an IC50 or EC50 that approximates it; ≥ and ≤ were set here for values at or beyond the usual limits of such assays
HLA-B*07:02 [1] = assay: as above
HLA-C*14:02 = assay: as above
HLA-A*26:02 = assay: as above
HLA-A*01:01 = assay: as above
HLA-B*58:01 = assay: as above; settings: source organism: Vibrio vulnificus YJ016
HLA-A*02:11 = assay: as above; settings: source organism: Vibrio vulnificus YJ016
HLA-B*18:01 = assay: as above
HLA-A*31:01 = assay: as above; settings: source organism: Vibrio vulnificus YJ016
HLA-B*08:01 [2] = assay: as above
HLA-A*69:01 [3] = assay: as above; settings: source organism: Vibrio vulnificus YJ016
HLA-A*26:03 = assay: as above; settings: source organism: Vibrio vulnificus YJ016
HLA-A*11:01 = assay: as above
HLA-B*57:01 = assay: as above
HLA-B*15:17 = assay: as above; settings: source organism: Vibrio vulnificus YJ016
HLA-A*68:02 = assay: as above
HLA-A*02:03 = assay: IEDB peptide-MHC binding, purified MHC/competitive/fluorescence; filed as Kd, often an IC50 or EC50 that approximates it; ≥ and ≤ were set here for values at or beyond the usual limits of such assays; settings: source organism: Vibrio vulnificus YJ016
HLA-B*07:02 [4] = assay: as above; settings: source organism: Vibrio vulnificus YJ016
HLA-A*30:01 = assay: as above; settings: source organism: Vibrio vulnificus YJ016
HLA-A*02:06 = assay: as above; settings: source organism: Vibrio vulnificus YJ016
HLA-A*02:01 [5] = assay: as above; settings: source organism: Vibrio vulnificus YJ016
HLA-B*39:01 = assay: as above
HLA-A*26:01 [6] = assay: IEDB peptide-MHC binding, purified MHC/direct/fluorescence; filed as Kd, often an IC50 or EC50 that approximates it; ≥ and ≤ were set here for values at or beyond the usual limits of such assays; settings: source organism: Influenza A virus (A/goose/Hong Kong/8/1976(H1N1))
HLA-B*27:05 = assay: as above; settings: source organism: Zaire ebolavirus
HLA-A*29:02 = assay: as above; settings: source organism: Zaire ebolavirus
HLA-A*03:01 = assay: as above; settings: source organism: Zaire ebolavirus
HLA-B*44:02 = assay: as above; settings: source organism: Zaire ebolavirus
HLA-B*46:01 = assay: as above; settings: source organism: Zaire ebolavirus
HLA-A*23:01 = assay: as above; settings: source organism: Zaire ebolavirus
HLA-A*24:02 = assay: IEDB peptide-MHC binding, purified MHC/competitive/fluorescence; ≥ and ≤ were set here for values at or beyond the usual limits of such assays; settings: source organism: Zaire ebolavirus
HLA-B*07:02 [7] = assay: as above; settings: source organism: Zaire ebolavirus
HLA-B*08:01 [8] = assay: as above; settings: source organism: Zaire ebolavirus
HLA-B*15:01 [9] = assay: as above; settings: source organism: Zaire ebolavirus
HLA-A*02:01 [10] = assay: as above; settings: source organism: Zaire ebolavirus
HLA-A*69:01 [11] = assay: IEDB peptide-MHC binding, purified MHC/competitive/fluorescence; filed as Kd, often an IC50 or EC50 that approximates it; ≥ and ≤ were set here for values at or beyond the usual limits of such assays; settings: source organism: Zaire ebolavirus
HLA-A*26:01 [12] = assay: as above; settings: source organism: Zaire ebolavirus
HLA-B*27:03 = assay: as above; settings: source organism: Zaire ebolavirus
HLA-B*15:01 [13] = assay: IEDB peptide-MHC binding, purified MHC/direct/fluorescence; filed as Kd, often an IC50 or EC50 that approximates it; ≥ and ≤ were set here for values at or beyond the usual limits of such assays; settings: source organism: Yellow fever virus 17D
[14] = source organism: Giardia lamblia ATCC 50803
[15] = source organism: Vibrio vulnificus YJ016
[16] = source organism: Zaire ebolavirus

Work on ATAQNRRAL yielded a Kd (HLA-B*51:01; [14]) of no less than 20 µM, a Kd (HLA-B*07:02 [1]; [14]) of 0.0227 µM and a Kd (HLA-C*14:02; [14]) of 0.273 µM.

Work on DTITNVTTM yielded a Kd (HLA-A*26:02; source organism: West Nile virus strain PTRoxo) of no more than 0.001 µM and a Kd (HLA-C*14:02; source organism: West Nile virus) of 1.65 µM.

LLRRRPYPL was tested, and the Kd (HLA-A*01:01; [15]) was no less than 20 µM, the Kd (HLA-B*58:01) was no less than 20 µM and the Kd (HLA-A*02:11) was no more than 0.001 µM. The Kd (HLA-A*26:02; [15]) was no less than 20 µM, the Kd (HLA-B*18:01; [15]) was no less than 20 µM and the Kd (HLA-A*31:01) was no less than 20 µM. For the same sequence, the Kd (HLA-B*08:01 [2]; [15]) was 0.003 µM, the Kd (HLA-A*69:01 [3]) was no less than 20 µM and the Kd (HLA-A*26:03) was no less than 20 µM. It also gave a Kd (HLA-A*11:01; [15]) of no less than 20 µM, a Kd (HLA-B*57:01; [15]) of no less than 20 µM and a Kd (HLA-B*15:17) of no less than 20 µM. It also gave a Kd (HLA-A*68:02; [15]) of no less than 20 µM, a Kd (HLA-A*02:03) of 0.0021 µM and a Kd (HLA-B*07:02 [4]) of 0.206 µM. For the same sequence, the Kd (HLA-A*30:01) was 0.441 µM, the Kd (HLA-A*02:06) was 2.04 µM and the Kd (HLA-A*02:01 [5]) was 0.105 µM. For the same sequence, the Kd (HLA-B*39:01; [15]) was no less than 20 µM.

LSPGMMMGM showed a Kd (HLA-A*26:02; source organism: Influenza B virus (B/Beijing/184/93)) of 0.319 µM and a Kd (HLA-A*26:01 [6]) of no less than 20 µM.

Work on RLAKLTEAI yielded a Kd (HLA-A*01:01; [16]) of no less than 20 µM, a Kd (HLA-B*18:01; [16]) of no less than 20 µM and a Kd (HLA-B*07:02 [1]; [16]) of no less than 20 µM. The Kd (HLA-B*27:05) was no less than 20 µM, the Kd (HLA-B*08:01 [2]; [16]) was 13.3 µM and the Kd (HLA-A*29:02) was no less than 20 µM. It also gave a Kd (HLA-A*03:01) of no less than 20 µM, a Kd (HLA-B*44:02) of no less than 20 µM and a Kd (HLA-A*11:01; [16]) of no less than 20 µM. It also gave a Kd (HLA-B*46:01) of no less than 20 µM, a Kd (HLA-A*23:01) of no less than 20 µM and a Kd (HLA-B*57:01; [16]) of no less than 20 µM. The Kd (HLA-A*68:02; [16]) was no less than 20 µM, the IC50 (HLA-A*24:02) was 1.43 µM and the IC50 (HLA-B*07:02 [7]) was no less than 217 µM. For the same sequence, the IC50 (HLA-B*08:01 [8]) was no less than 182 µM, the IC50 (HLA-B*15:01 [9]) was 48 µM and the IC50 (HLA-A*02:01 [10]) was 14.9 µM. It also gave a Kd (HLA-A*69:01 [11]) of no less than 20 µM, a Kd (HLA-A*26:01 [12]) of no less than 20 µM and a Kd (HLA-B*27:03) of no less than 20 µM. The Kd (HLA-B*39:01; [16]) was no less than 20 µM.

Sequence SVAMCRTPF has a Kd (HLA-B*51:01; source organism: Yellow fever virus 17D) of no less than 20 µM and a Kd (HLA-B*15:01 [13]) of 0.032 µM.
